According to the DeepSol protein solubility set:

test: soluble on expression in E. coli; label from the status in PepcDB or PDB records

Sequence	soluble on expression in E. coli
MGSDKIHHHHHHMSDIIQFPNSSKKLYKDIKRAEQDQNYDLMYEYIVQYERQFELTEEIAMMKCRMLYETGSFLELREETIVLLKTGIQQYDALMIYYVKSLIGLGQYFEAVEVIHQIIDEVKDHKTRMALHPLKEFAKSKLIEDEKRLTQSLTDFDTLSMREQTHLILKLIDNGHFQFQETVLYILKSNTYSYNLISLMIEYLRFANCTQELTIEKYGMDVTFVPANLNGLEHTTLKEKVIPNVMETLNDGALHIAEEAHHIMNNHSIMIYPIDIETLFETNKWINAYECYFKNMLGLKCELQSIDAFNFIQQLDLNNNS	not soluble
SMEVARAARLAQIFKEICDGIISYKDSSRQALAAPLLNLPPKKKNADYYEKISDPLDLITIEKQILTGYYKTVEAFDADMLKVFRNAEKYYGRKSPVGRDVCRLRKAYYNARHEASAQIDEIVGET	soluble
MSLESKYTVLDMFSGAGGLTEGFFQQGFKFVSHIEKNCHARNSLETRAIYHSLKDSSNERIYRDYISGNLNRDEFIHKFKELELTPAGLLQGEVTESNETTMIKEIKEHLKVIDSDSVDVVIGGPPCQAYSVAGRGRKPKEMKDDPRNYLYRHYISFLKSFEPKIFVFENVPGIKSAINGIIFSNLHEELEKLGYKTEAHMLNAKDFSVLQERNRIIFIGWKNEHDLSYPDFLKTPLGRFHVSSLLNDLPPLQAGEGTEGPAKYTKPFSWSSEYLQRFKIREKKDILIQHNARIHNPRDRTIYRLAIEKWDKERKRLKYNELSPELQTHKNKTSFLDRFKVVNQYGYSHAILAHISKDGHYFIHPDIHQARSLTVREVARIQSFPDNYKFEGPRIAQYAQIGNAVPPLMAKGIAVEIEKMLEEISEGHHHHHH	not soluble
MQPQAFYRVVAEDFTAVDGIIRRQLTSRVPLVEKIGDYIISAGGKRLRPLLVLLAGKTLGYKGDDLCLLAATIEFLHTSTLLHDDVVDASGLRRGRSTANALWGNAPSVLVGDFLYARSFEMMVELGSMPVMRIISQATRVIAEGEVLQLSKVRDASTTEETYMEVIRGKTAMLFEASTHSAAALCQAGEEQSEALRRFGDYLGIAFQLVDDLLDYRGDAATLGKNVGDDLAEGKPTLPLIVTMRDGTEEQAALVRKAIQQGGSQDLESVCAAVEAAGALDYTANLARDYAARAIACLDTLPDNEYRSALVELSEFAVARTH	not soluble
MSIATQEFDAIVIGAGGAGLRASFQLSQSGFKTAVVSKVFPTRSHTVAAQGGIAAALGNIEFDDGLPSDDWKWHMYDTVKGSDYIGDQDAIEYMCEHAPQSIIELEHMGMPFSRLKNGKIYQRAFGGMSRNYDPANQAERTCAAADRTGHALLHTLYQGNLAHKTDFYTEWFAVDLVKADDGSIAGVIALCIETGETVFLKAKITILATGGAGRIYESSTNAYINTGDGMGLALRAGLPLQDMEFWQFHPTGIAGAGVLVTEGCRGEGGVLRNKDGERFMERYAPNAKDLACRDVVSRASQQEIMEGRGDTFSGTSCVWLDLTHLGEDVINERLPTVRELGRTFAGIDPVEKPIPVVPTCHYQMGGIPTNKHGQVITQVDGKDKVIGGLYAVGECASVSVHGANRLGSNSLLDLVVFGRAAGMHAEQSLKEGMPMKEVSQENIEKATARITKWDTSEQRGCKEKISELRKELQRVMQQYFSVFRQESTMKEGLDKLFNIRERLDNAVLEDNSRIFNMMRIEALELDNLVLTAIATAKLALERKESRGAHSRVDYPERDDKNWMKHTLYFLEGDRTSLRDVNMSPTKVKAFQPAERKY	not soluble
MSLKRAIIIGATSGIGKEVAQRLLSEGWQIGIAGRRQSALEEFRQIAPEQIKIQSLDVTQEYSAGKLDALIHQLGGMDLFLLSSGIGFQNMELNMEIELNTARTNVEGFTRMVDTAFSYFRNNGGGHLAVISSIAGTKGLGVAPAYSATKRFQNTYIDALEQLSHLQKLDIHFTDIRPGFVATDLLNDGKHYPMLMKTDQVGRDIVRALHRKQRVAIIDGRYRILVFFWRMIPRWIWKRLPVKTEGHHHHHH	soluble
MESKRLDNAALAAGISPNYINAHGKPQSISAETKRRLLDAMHQRTATKVAVTPVPNVMVYTSGKKMPMVVEGSGEYSWQLTTEEGTQYKGHVTGGKAFNLPTKLPEGYHTLTLTQDDQRAHCRVIVAPKRCYEPQALLNKQKLWGACVQLYTLRSEKNWGIGDFGDLKAMLVDVAKRGGSFIGLNPIHALYPANPESASPYSPSSRRWLNVIYIDVNAVEDFHLSEEAQAWWQLPTTQQTLQQARDADWVDYSTVTALKMTALRMAWKGFAQRDDEQMAAFRQFVAEQGDSLFWQAAFDALHAQQVKEDEMRWGWPAWPEMYKNVDSPEVRQFCEEHRDDVDFYLWLQWLAYSQFAACWEISQGYEMPIGLYRDLAVGVAEGGAETWCDRELYCLKASVGAPPDILGPLGQNWGLPPMDPHIITARAYEPFIELLRANMQNCGALRIDHVMSMLRLWWIPYGETADQGAYVHYPVDDLLSILALESKRHRCMVIGEDLGTVPVEIVGKLRSSGVYSYKVLYFENDHEKTFRAPKAYPEQSMAVAATHDLPTLRGYWESGDLTLGKTLGLYPDEVVLRGLYQDRELAKQGLLDALHKYGCLPKRAGHKASLMSMTPTLNRGLQRYIADSNSALLGLQPEDWLDMAEPVNIPGTSYQYKNWRRKLSATLESMFADDGVNKLLKDLDRRRRAAAKKK	not soluble
GPGSMYKLPIEAQFNLIEEEFAAIEASTMNPRLYNFTTSNANPTKNRYINVLANEETIFPPTSLTSAPPTTGGSRLSTSGSPPSMASAPSPMKSLTGRAQKIWGVAGQRLFGTRRGGTLPRDVEGNEKFTTGCVTKKYPQWYINANVVDTSVEPVFVASQAPVQECIDDFLAVIYSCEVTLVLMLTELEEAGFVKADRYWPEDSAPADRIESFGSMCVYKDEQDPYTCDAAHELVRRSFYIRPSAASQARAHKIVMYQYVGWPDRGVPDSTESFEELLKIIQGYVMASPAPRVPAAGPESAAHSSIATNSGGDGSTSNTGSGEGSGKLTPPVFVHCSAGIGRTGTLIGAYTAVKLTEAGLLTNTSIRRIVTDMRKARFGMVQRVEQYMFLYMIVLQHMGVDARKFSARMQPRADLYNMRWMEARQKALLGARAAKR	not soluble
SNASVRPSLWEFSSRVGMHVGASTPVPVPQAMEHVYAWYPRLNPMVQLSASRRLLAGSPWAVNVGIAVEKKGMEATTRVKDMKVAIVSDSPYAGNPDEEYPGLFTGDNNTEIRLGYLTIPVQAEYNMLKDRLKLRGGLYTSLLLESSFRVIIDGTMVYDDPKLGTAQMDLRELNFSDKIKGADFGVIIGADYYFARQ	not soluble
MFSKKKDKFMVQLEEMVFNLDRAAIEFGKMDFNTHLDLKAYSDNIKTYESHGDELMHQVISDLNQTFITPIEREDILSLCNAIDDVLDAMEETSAMFEMYSIEYTDEYMAEFVENIQKAVAEMKLAVGLLVDKKLSHMRIHSINIKEFETNCDGILRQSMKHIFNSETDPITLIKIKDIYQSMEEIADKCQAVANNFETIIMKNSLEHHHHHH	soluble
MNLPEVSEKLIEQLNHGSTKAFDKIYHTYYLYLCAIAVYYVHDKRVAGEIVNDVFVSFWQNRHHITYPALPYLRRAIQNASISYLRSSAFNERIMTEQMEEIWAFLENHILSSDNPLQALESSEMNEIILRKVEELPAKCRAVFKASLYEGKSYSEIAEEQNINVATVRVQMKIALTKLRESLGTPYMIAILMFL	not soluble
MLGLFDQGRLIGAVVLDPRRLGPERDWLQLKFLHLSHAYRRRGLGAHLFHLAATQARHLGASALYVSATPSQNTVDFYTRLGCR	soluble
MGSDKIHHHHHHMNIQEAFNAAAVDYDSLRRILIPCFDDFYKTAVEIIPIERTAPIKVLDLGAGTGLYSGMVQSVFPNAELTLLDLAPEMLEKAKLRFSKMGKSPKILIGDYVETNLDDSYDLIISALSIHHLSDFDKELLYQRIYNFLNPGGIFVNADQVLGKTPDLEELYRQHWLDSVRAKGISEEDLKAAQKRMEYDRMATLEIQLHWLEAAGFQNVDCWYKNFSFAVFGGYRPTI	not soluble
MEKYSQVIFDKNTVEFVTVAAEFCGFLERARDMKRYDFVDTALKILPLLYLKATLLPPCEPIGEDEPETFVTEEDYELIRRAIAGVLGAKDDYLEVFLPDMVYSDTPIKKCISEDLADIYQDLKDFISVFQLGLNETMNDSLVVCKEHFREFWGQRLVNTMRALHDVKYSPADDGEEEEMEDENSLLLEHHHHHH	soluble
MSTVVEKSGEAKPGKVEVGVKLRGAEKVARIPVKIIPTEELPKKPDWIRVRIPVSPEVDRIKQLLRKHKLHSVCEEASCPNLGECFSGGTATFMIMGDICTRRCPFCDVGHGRPKPLDVDEPTNLAIAIADLRLKYVVITSVDRDDLRDGGAQHFADCLREIRKLSPGIQLETLVPDYRGRMDIALEITANEPPDVFNHNLETVPRLYRSSRPGSDFEWSLDLLQKFKQMVPHVPTKSGLMLGLGETDDEVIEVMQRMREHDIDMLTLGQYLQPSRNHLPVQRFVHPDTFAWFAEEGEKMGFKNVASGPLVRSSYHADQQAHGNKIG	not soluble
GVKYAYHGGAMANGIASVELVVALGKAGFLCSFGAAGLVPDAVEDAIKRIQAELPNGPYAVNLIHAPAEEALERGAVERFLKLGVKTVEASAYLGLTEHIVWYRLAGLSKNSDGSVKIGNKVIAKVSRTEVGRRFMEPAPQKLIDKLLAQGKVTQEQAELSKLVPMADDITAEADSGGHTDNRPFLTLLPTIIALRDEVQAQYNFSPALRVGAGGGIGTPEAALAAFNMGSAYIVLGSVNQACVEAGASEYTRKLLAQVEMAD	not soluble
MAHHHHHHMLSLPRDHHYHAHHSGTEFVPFDQVIGITPDGVPVISNGNEFHFSNLESVTPSYQALCSSVRKAPVIVPCTKLGAKWQCVEFARRYLASRKAVWTASMPIAADMLRAEPPFVHVQDSTPVEFTRTPNRSHGPAPAMSDIIVWDQSEETPLGHVAVVTEVLPEAVRVAEQNQGFERWPQGMLYSREISMQRSSAGTVELVDEDSVLGWVTLQCPYYDFRDGDLADKFRIATGPGCIVRQPFPKHVELPWVQPEERCDFYLKRSLAIGGNVGDDARAEECDVPSAFFFYFLDY	not soluble
AIAEEDEFIGEKTFQRYCAEFIKHSQQIGDSWEWRPSKDCSDGYMCKIHFQIKNGSVMSHLGASTHGQTCLPMEEAFELPLDDCEVIETAAASEVIKYEYHVLYSCSYQVPVLYFRASFLDGRPLTLKDIWEGVHECYKMRLLQGPWDTITQQEHPILGQPFFVLHPCKTNEFMTPVLKNSQKINKNVNYITSWLSIVGPVVGLNLPLSYAKATSQDERNVP	soluble
MSKKSQIIETATRLFAEHGFENTPVSLICEEAEVSKGAVFHHFKNKNDILREVFIHITTIIEETDKNDVHLATQEDPLEAAIHEIFDGMSVAKYRKMYQFNFSVMVHPTTRAIVADLIEDRYQQLQTSAEEIFRAVGYSNPVVITKMFIAEIDGIAMNYLLNNDFPLMDIKQEFIKKYCQ	not soluble
MNTSSSADPKPDASLSSSNSKIKKEEDLEAMKEAIAQLLQGVEELTQDKLNDAKSRKKLEESMEELKSQNLDLKAQLDFQMAHFQSLFEAHEKEIADLKARQYQNNSIAAQTPPPDVRQELRSFPMVKHSRENPELRNVPVLIFSRCMLCETDEHTIHSCPIYNTNSKRYEGFKDKGLCRSCALPANSDGSATCGRNCMFSRRRCTNCWDKGGDKSYVYHLEFTCRWDERRSQRTSPFSTDHSDRSSKHPRISFDECENHHY	not soluble
MKEIILLVFLSRKEQTNRSANIFSSVLKGFEAQTIVYSLSYQKFYSNRKNKHKDETILVTAIYRCRRNPHGMQLKQCSPSVGSGAKTRTSGRLRP	not soluble
